From paper PMC4810252

B1: BST-2/tetherin: N65/92A (protein)
parent chain: MASTSYDYCRVPMEDGDKRCKLLLGIGILVLLIIVILGVPLIIFTIKANSEACRDGLRAVMECRNVTHLLQQELTEAQKGFQDVEAQAATCNHTVMALMASLDAEKAQGQKKVEELEGEITTLNHKLQDASAEVERLRRENQVLSVRIADKKYYPSSQDSSSAAAPQLLIVLLGLSALLQ
B2: BST-2/tetherin: N92A (protein)
parent chain: B1 parent chain
B3: BST-2/tetherin: N65A (protein)
parent chain: B1 parent chain

Key:
Settings in all cases: glycan lost; control: wild type
[1] = HBsAg ELISA of supernatant; 293T and Huh7
[2] = confocal co-localisation, transient and stable 293T
[3] = sucrose gradient fractionation, stable 293T, Western blot
[4] = confocal co-localisation, transfected 293T
[5] = confocal co-localisation, stable 293T

| Protein | other: restriction of virus release [1] | localisation_or_trafficking [2] | localisation_or_trafficking [3] | localisation_or_trafficking [4] | localisation_or_trafficking [5] |
| --- | --- | --- | --- | --- | --- |
| B1 | no change | increases | changes |  |  |
| B2 |  |  | changes | no change |  |
| B3 |  |  | changes | no change | no change |
